Key:
Assay in all cases: pull-down binding Z-score (relative to library population); higher = stronger binding
[1] = system: G-clamp-N3 (biotin conjugate); settings: RNA library: Library-1 (pre-miRNA loops + repeats)
Outline: (§1)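 Biotin-conjugated small molecule (100 pmol) on streptavidin beads was incubated with 1 μg of heat-folded Cy5- or Cy3-end-labelled RNA library in phosphate/NaCl/KCl buffer at 25 °C for 60 min. Following three washes, RNA was eluted with hot SDS and hybridised at 55.5 °C for 20 h to a DNA barcode microarray. The binding value is a Z-score computed from the library mean and standard deviation, after subtraction of beads without compound and averaging of barcoded replicate probes with the highest and lowest excluded.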

[2] = system: TO-N3-2 (biotin conjugate); settings: RNA library: Library-2
Outline: as §1

TO-N3 (biotin conjugate) = settings: RNA library: Library-2
Outline: as §1

[3] = system: TO-3-N3 (biotin conjugate); settings: RNA library: Library-2
Outline: as §1

[4] = system: TO-3-N3-2 (biotin conjugate); settings: RNA library: Library-2
Outline: as §1

| Sequence | pull-down binding Z-score [1] | pull-down binding Z-score [2] | pull-down binding Z-score (TO-N3 (biotin conjugate)) | pull-down binding Z-score [3] | pull-down binding Z-score [4] |
| --- | --- | --- | --- | --- | --- |
| GUCCAUUAGGCUUUGUUAUGGAAACUUCUCCUGAUC [hsa-mir-635] | -0.608 | 0.875 | 0.6 | 0.517 | 0.607 |
| UUGAGAAGUAAUUGA [hsa-mir-548ak] | 0.0758 | -0.239 | 0.251 | 0.404 | -0.0284 |
| GAUCCUUUGUUCUGGAUC [hsa-mir-7856] | 0.436 | -0.63 | -0.266 | 0.118 | -0.283 |
| UUAACAUGUUGAGCAUUACUCAUGUUAG [hsa-mir-3684] | -0.319 | -0.162 | -0.597 | -0.527 | -0.175 |
| UGGGCUCCCCUAGACUAGGACUCCA [hsa-mir-1825] | 0.254 | 0.508 | -0.37 | -0.367 | -0.507 |
| CUGUUCAGGACUCCCAAAUUGUACAG [hsa-mir-199b] | -0.893 | 0.347 | 1 | 1.12 | 0.385 |
| UUUGCCUGUAAAAGUAAUGGCAAA [hsa-mir-548d-1] | -0.646 | -0.552 | -0.702 | -0.488 | -0.105 |
| UAUGAAGGUAAGCAUUUUUGUA [hsa-mir-3935] | -0.00708 | -0.419 | -0.614 | -0.615 | -0.263 |
| GAUGUAUCCAAGUACCCUGUGUUAUUUGGCAAUAAAUACAUC [hsa-mir-1298] | -1.2 | -0.35 | -1.27 | -0.204 | -0.361 |
| UGCCACCCAGCCCUGCAGAGCCCCUGACUC [hsa-mir-6814] | -1.17 | 1.44 | 1.16 | 0.562 | 0.422 |
| GCUUUAUGUCCUGACCCAGCUAAAGC [hsa-mir-22] | -0.155 | -0.0465 | 0.112 | 0.3 | -0.246 |
| GAACUAACUAACCAGAACUAUUUUGUUC [hsa-mir-4652] | -1.48 | -0.742 | -0.0697 | 0.249 | 0.0681 |
| UGUUUCUUUAAUGAGGACGAAACA [hsa-mir-329-1] | 1.67 | -0.326 | 0.46 | 0.65 | 0.302 |
| GUGAGGCAGGGAGCUGAGCUCAC [hsa-mir-3622a] | -0.0355 | 1.06 | 0.698 | 0.401 | 0.142 |
| CCUUUCCCCUCAGACCAAGG [hsa-mir-3131] | -0.0682 | -0.176 | -0.412 | -0.315 | -0.26 |
| GUUGAAAAAUAUCUAUGUAUUAGUAAAC [hsa-mir-649] | -0.475 | -0.74 | -0.151 | -0.0443 | -0.281 |
| CACAAGACUAGGCUUCCCUGUG [hsa-mir-3152] | -0.785 | -0.0548 | 0.13 | 0.212 | 0.0303 |
| CGAUAAACCCCUAAAUAGGGACUUUCCCG [hsa-mir-484] | -0.934 | -0.157 | -0.511 | -0.473 | -0.266 |
| CCCUGCACUCAGUUUGCACAGGG [hsa-mir-4511] | 0.204 | 0.0492 | -0.122 | -0.159 | -0.184 |

| Sequence | pull-down binding Z-score [1] | pull-down binding Z-score [2] | pull-down binding Z-score (TO-N3 (biotin conjugate)) | pull-down binding Z-score [3] | pull-down binding Z-score [4] |
| --- | --- | --- | --- | --- | --- |
| AGGUAGUGUGAUUACCCAACCUACU [hsa-mir-93] | 0.373 | 0.272 | 0.0315 | -0.148 | -0.179 |
| UGGACUGUGUACCAAUUUCCA [hsa-mir-194-1] | 0.055 | -0.471 | -0.21 | -0.134 | -0.379 |
| GUGGUGGGCACUGCUGGGGUGGGCACAGCAGCCAUGCAGAGCGGGCAUUUGACCCCGUGCCACCCUUUUCCCCAG [hsa-mir-1227] | 0.221 | 2.64 | 3.14 | 2.64 | 1.89 |
| GACCGUUGGCAUCUUAAUUACCCUC [hsa-mir-532] | -0.675 | 0.318 | -0.233 | -0.448 | -0.339 |
| CUGUCUGUUGUCUAAGAAAAGAUCG [hsa-mir-517c_517b] | 0.565 | 0.202 | -0.0242 | -0.481 | 0.294 |
| UGAAAGGUUUUUUCUCUCA [hsa-mir-4797] | 0.0116 | -0.918 | -0.402 | -0.332 | -0.248 |
| AGAAAGUGAAACACUAUUUUAGGUUUU [hsa-mir-4458] | -0.486 | -0.248 | -0.0974 | 0.0524 | -0.00981 |
| GCUGCCAUCUCCCACUGGCUGC [hsa-mir-4736] | -0.492 | 0.0852 | -0.536 | -0.569 | -0.495 |
| GUUGGCUCAAGAAAGGGAGAUAGAUGGUAGCCC [hsa-mir-6884] | 0.473 | 3.94 | 1.94 | 1.71 | 1.51 |
| GGCUUUGGCAUCUAUGAAAGCC [hsa-mir-4755] | 0.33 | -0.233 | 0.507 | 0.45 | -0.302 |
| CUAAAUGGUACCCACUUUAUUUAG [hsa-mir-5687] | -0.726 | -0.639 | -0.76 | -0.627 | -0.0559 |
| CCAUGUGGUUGCGAGGUAUGAGUAAAACAUGG [hsa-mir-218-1] | -0.319 | 0.275 | -0.567 | -0.697 | -0.174 |
| AACAGGACCUGUGCUCACUGGGGCCUGCA [hsa-mir-6797] | -0.344 | 1.55 | 1.02 | 0.406 | 0.298 |
| UUGAGGGACAUGGUUAAUGGAAUUGUCUCA [hsa-mir-342] | 0.369 | 0.641 | 0.413 | 0.338 | 0.0248 |
| CUUGUGGUAUUAGUCCGCACAAG [hsa-mir-100] | 1.17 | -0.096 | 0.334 | 0.418 | -0.161 |
| AGCAUCUGAAUGGGUACAGUUGUUGU [hsa-mir-6818] | -0.405 | -0.225 | 0.0834 | 0.0263 | -0.0469 |
| CAUUCUUUGCUA [hsa-mir-567] | -1.3 | -0.53 | 0.664 | 0.85 | -0.257 |
| UAUUGGGCCAAUUCCCCCAAUG [hsa-mir-4781] | -1.57 | -1.12 | -1.38 | -1.13 | -0.791 |
| UACAAUUUUUUUUUUUUUAAAUUUUA [hsa-mir-1303] | 0.8 | -1.17 | -0.893 | -0.51 | 0.111 |

| Sequence | pull-down binding Z-score [1] | pull-down binding Z-score [2] | pull-down binding Z-score (TO-N3 (biotin conjugate)) | pull-down binding Z-score [3] | pull-down binding Z-score [4] |
| --- | --- | --- | --- | --- | --- |
| CUCAUGAUAUGUUUGCCCCAUCAGCGUGUCACGAG [hsa-mir-3616] | 0.251 | 0.199 | -0.0894 | -0.104 | -0.139 |
| GGAUCAUGUUUGCCCCCGUGGACAGCUCUCUGGUGUGCUCCUCCUGCCAUCCUGCCCACCCCUGCAUAAUGCUGCUUC [hsa-mir-6809] | -1.25 | 1.5 | 1.02 | 0.306 | 0.384 |
| CAGGCUGUGGCUCUCUGAAAGUC [hsa-mir-148b] | -1.29 | 1.18 | 1.09 | 0.761 | 0.496 |
| GCUUAUGGGGAUAUUGUGGUUGAUCUGUUCUAUCCAGAUGAC [hsa-mir-1261] | 0.854 | 0.626 | 0.676 | 0.283 | 0.0944 |
| GGAAUCCUACGUGAGGGACAAUCAUUCAGACCCACGUAGCAGUGUUCU [hsa-mir-1299] | 0.0519 | 0.496 | 0.632 | 0.353 | 0.392 |
| CUGGGAAGAGACCAUGAACAGGUUAGUCCAG [hsa-mir-4327] | -0.176 | -0.495 | 0.536 | 0.385 | -0.286 |
| CUGCAGUGAGUAGGUCUGCCU [hsa-mir-4254] | -0.362 | 1.17 | 0.705 | 0.19 | 0.253 |
| GCUGCUGGUGCUCAUCUCAGC [hsa-mir-6877] | -0.152 | 0.602 | 0.825 | 0.71 | -0.0239 |
| AAUCCCUCUCUUUCUAGUUCUUCCUAGAGUGAGGAAAA [hsa-mir-320b-1] | -1.69 | -0.55 | -0.325 | -0.294 | -0.166 |
| GAGCCUUAAAGGAUGAGGUA [hsa-mir-4280] | -0.485 | 0.54 | 0.362 | 0.0602 | 0.063 |
| CCACAUAGGAGGGACAGCGGCCUUUCCAACAGG [hsa-mir-9500] | -0.994 | 0.847 | 0.58 | 0.253 | 0.043 |
| GAGAAACUUGAGGUCUCUGGGAGUUGCUUAAACCAGUUGACCGUAACCUGGCCAGAGAAUUCUGAUAGUGUC [hsa-mir-6740] | 1.09 | 1.32 | 0.571 | -0.13 | -0.00402 |
| CGCGGAGCAGCGCUGGGUGCAGCGCCUG [hsa-mir-4508] | -0.567 | 1.5 | 0.334 | -0.051 | -0.27 |
| CUUUUGGAAAAUAGAAAAG [hsa-mir-3184] | 1.56 | -0.0491 | -0.433 | -0.24 | 0.161 |
| UUGAACUUCAUUUCUCAUGCUCA [hsa-mir-6870] | -1.6 | 0.145 | -0.104 | -0.278 | 0.277 |
| CUCAGCCUGGAAAAAGCUGAG [hsa-mir-4765] | 0.49 | -0.646 | -0.672 | -0.454 | -0.575 |
| AGCCCUGGGCUCCUCAGCAAACCUACUGGAU [hsa-mir-3174] | -1.41 | 0.975 | 0.857 | 0.494 | 0.3 |
| GGGGCCCUACUUUAAGGGCCCU [hsa-mir-8087] | 1.03 | -0.706 | 0.868 | 0.997 | 0.194 |
